Results as given in US20190194324A1 (published 2019).

What was measured:
[1] = target: α-syn-biotin PFF (biotin-labelled α-synuclein pre-formed fibrils) (mouse, UniProt O55042 1-140); experiment: cell surface binding (SH-SY5Y)
[2] = target: T1, α-syn-biotin monomer (mouse, UniProt O55042 1-140); experiment: cell surface binding (SH-SY5Y)
[3] = target: T1, α-syn-biotin monomer; experiment: cell surface binding (SH-SY5Y); LAG3* (no Triton)

Row | Binder | Kd [1] [nM] | Kd [2] [nM] | Kd [3] [nM]
1 | LAG3 (protein) MWEAQFLGLLFLQPLWVAPVKPLQPGAEVPVVWAQEGAPAQLPCSPTIPLQDLSLLRRAGVTWQHQPDSGPPAAAPGHPLAPGPHPAAPSSWGPRPRRYTVLSVGPGGLRSGRLPLQPRVQLDERGRQRGDFSLWLRPARRADAGEYRAAVHLRDRALSCRLRLRLGQASMTASPPGSLRASDWVILNCSFSRPDRPASVHWFRNRGQGRVPVRESPHHHLAESFLFLPQVSPMDSGPWGCILTYRDGFNVSIMYNLTVLGLEPPTPLTVYAGAGSRVGLPCRLPAGVGTRSFLTAKWTPPGGGPDLLVTGDNGDFTLRLEDVSQAQAGTYTCHIHLQEQQLNATVTLAIITVTPKSFGSPGSLGKLLCEVTPVSGQERFVWSSLDTPSQRSFSGPWLEAQEAQLLSQPWQCQLYQGERLLGAAVYFTELSSPGAQRSGRAPGALPAGHLLLFLILGVLSLLLLVTGAFGFHLWRRQWRPRRFSALEQGIHPPQAQSKIEELEQEPEPEPEPEPEPEPEPEPEQL | 77 | > 3000 | 
2 | LAG3 overexpressed in transfected cells (SH-SY5Y; HEK293FT) (receptor) LQPGAEVPVVWAQEGAPAQLPCSPTIPLQDLSLLRRAGVTWQHQPDSGPPAAAPGHPLAPGPHPAAPSSWGPRPRRYTVLSVGPGGLRSGRLPLQPRVQLDERGRQRGDFSLWLRPARRADAGEYRAAVHLRDRALSCRLRLRLGQASMTASPPGSLRASDWVILNCSFSRPDRPASVHWFRNRGQGRVPVRESPHHHLAESFLFLPQVSPMDSGPWGCILTYRDGFNVSIMYNLTVLGLEPPTPLTVYAGAGSRVGLPCRLPAGVGTRSFLTAKWTPPGGGPDLLVTGDNGDFTLRLEDVSQAQAGTYTCHIHLQEQQLNATVTLAIITVTPKSFGSPGSLGKLLCEVTPVSGQERFVWSSLDTPSQRSFSGPWLEAQEAQLLSQPWQCQLYQGERLLGAAVYFTELSSPGAQRSGRAPGALPAGHLLLFLILGVLSLLLLVTGAFGFHLWRRQWRPRRFSALEQGIHPPQAQSKIEELEQEPEPEPEPEPEPEPEPEPEQL |  |  | > 3000
